What was measured:
[1] = molecular target: TBK1 (endogenous, MLFs) (UniProt Q9WUN2)
[2] = molecular target: VISA/MAVS (endogenous, MLFs) (UniProt Q8VCF0)
[3] = molecular target: RIG-I (endogenous, MLFs) (UniProt Q6Q899)
[4] = molecular target: IRF3 (endogenous, MLFs) (UniProt P70671)
[5] = molecular target: MITA/STING (endogenous, MLFs) (UniProt Q3TBT3)
[6] = molecular target: IRF3-Y/F (UniProt Q14653)
[7] = molecular target: HA-tagged IRF3 (overexpressed in HEK293 cells) (UniProt Q14653)
[8] = molecular target: HA-tagged RIG-I (overexpressed in HEK293 cells) (UniProt O95786)
[9] = molecular target: HA-tagged MITA (overexpressed in HEK293 cells) (UniProt Q86WV6)
Sequence of HA-tagged MITA (overexpressed in HEK293 cells) (Q86WV6 whole entry): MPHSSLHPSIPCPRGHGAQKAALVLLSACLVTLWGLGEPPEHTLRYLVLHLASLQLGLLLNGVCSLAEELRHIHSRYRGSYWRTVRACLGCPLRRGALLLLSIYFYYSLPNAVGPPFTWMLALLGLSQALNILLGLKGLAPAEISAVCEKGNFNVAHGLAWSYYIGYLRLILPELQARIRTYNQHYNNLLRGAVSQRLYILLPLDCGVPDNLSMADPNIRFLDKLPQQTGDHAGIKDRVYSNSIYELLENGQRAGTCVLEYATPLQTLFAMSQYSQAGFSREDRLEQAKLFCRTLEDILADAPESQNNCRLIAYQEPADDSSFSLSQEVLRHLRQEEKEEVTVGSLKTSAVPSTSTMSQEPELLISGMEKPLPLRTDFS

[10] = molecular target: HA-tagged VISA (overexpressed in HEK293 cells) (UniProt Q7Z434)
[11] = molecular target: HA-tagged cGAS (overexpressed in HEK293 cells) (UniProt Q8N884)
Sequence of HA-tagged cGAS (overexpressed in HEK293 cells) (Q8N884 whole entry): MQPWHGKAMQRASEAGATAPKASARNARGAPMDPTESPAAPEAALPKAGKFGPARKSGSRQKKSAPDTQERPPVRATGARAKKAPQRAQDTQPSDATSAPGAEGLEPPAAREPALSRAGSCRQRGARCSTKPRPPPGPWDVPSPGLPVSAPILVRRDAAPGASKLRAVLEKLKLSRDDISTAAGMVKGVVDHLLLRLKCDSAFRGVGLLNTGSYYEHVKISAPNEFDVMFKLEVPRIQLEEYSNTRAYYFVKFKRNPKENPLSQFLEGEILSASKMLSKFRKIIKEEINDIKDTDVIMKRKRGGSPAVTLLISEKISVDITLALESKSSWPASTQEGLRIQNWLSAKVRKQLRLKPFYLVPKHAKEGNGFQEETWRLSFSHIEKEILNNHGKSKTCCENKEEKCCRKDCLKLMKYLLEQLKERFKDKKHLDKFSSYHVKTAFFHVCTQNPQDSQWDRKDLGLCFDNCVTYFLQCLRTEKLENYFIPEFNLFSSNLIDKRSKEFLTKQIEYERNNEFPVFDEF

[12] = molecular target: HA-tagged TBK1 (overexpressed in HEK293 cells) (UniProt Q9UHD2)
Sequence of HA-tagged TBK1 (overexpressed in HEK293 cells) (Q9UHD2 whole entry): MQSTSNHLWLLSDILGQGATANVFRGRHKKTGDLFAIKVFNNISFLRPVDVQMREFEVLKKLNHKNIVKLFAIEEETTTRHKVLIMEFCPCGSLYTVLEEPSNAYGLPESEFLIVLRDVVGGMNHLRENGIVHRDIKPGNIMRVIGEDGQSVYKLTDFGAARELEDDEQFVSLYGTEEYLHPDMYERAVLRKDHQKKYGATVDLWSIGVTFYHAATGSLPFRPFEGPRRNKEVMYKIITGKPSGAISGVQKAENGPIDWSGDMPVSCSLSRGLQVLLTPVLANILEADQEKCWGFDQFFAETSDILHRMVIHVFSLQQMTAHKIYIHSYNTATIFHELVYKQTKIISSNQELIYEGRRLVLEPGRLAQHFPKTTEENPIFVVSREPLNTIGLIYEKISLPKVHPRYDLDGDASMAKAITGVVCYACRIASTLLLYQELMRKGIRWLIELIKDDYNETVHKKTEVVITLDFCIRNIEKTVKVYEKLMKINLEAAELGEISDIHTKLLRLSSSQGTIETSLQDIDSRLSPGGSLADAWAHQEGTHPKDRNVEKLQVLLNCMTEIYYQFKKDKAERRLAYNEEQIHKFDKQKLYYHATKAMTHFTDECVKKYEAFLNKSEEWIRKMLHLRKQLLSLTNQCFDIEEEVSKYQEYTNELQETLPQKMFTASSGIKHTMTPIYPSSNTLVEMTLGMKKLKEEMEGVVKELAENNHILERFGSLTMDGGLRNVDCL

[13] = molecular target: VISA-6YF (UniProt Q7Z434)
Sequence of VISA-6YF (Q7Z434 other isoform, or with tags, fused parts or gaps): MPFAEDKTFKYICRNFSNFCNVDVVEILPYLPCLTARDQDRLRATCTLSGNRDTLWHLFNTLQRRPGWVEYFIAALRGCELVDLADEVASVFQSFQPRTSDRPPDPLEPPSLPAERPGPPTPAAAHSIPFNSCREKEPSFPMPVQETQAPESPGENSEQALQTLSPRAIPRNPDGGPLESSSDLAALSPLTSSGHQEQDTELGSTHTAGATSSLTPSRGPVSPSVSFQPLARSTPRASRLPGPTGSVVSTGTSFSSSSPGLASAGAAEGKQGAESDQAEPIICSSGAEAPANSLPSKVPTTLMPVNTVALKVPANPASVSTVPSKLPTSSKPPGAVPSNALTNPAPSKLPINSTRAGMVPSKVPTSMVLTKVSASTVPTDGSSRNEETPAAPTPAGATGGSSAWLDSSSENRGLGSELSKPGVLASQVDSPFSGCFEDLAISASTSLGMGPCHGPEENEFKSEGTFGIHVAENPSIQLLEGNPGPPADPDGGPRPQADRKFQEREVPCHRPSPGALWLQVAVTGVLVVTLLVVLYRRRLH

[14] = molecular target: MITA-Y/F (UniProt Q86WV6)
Sequence of MITA-Y/F (Q86WV6 whole entry Y245F): as the sequence (Q86WV6 whole entry) above, with Y245F counted along it

Sequence of IRF3 (endogenous, MLFs) (P70671 whole entry): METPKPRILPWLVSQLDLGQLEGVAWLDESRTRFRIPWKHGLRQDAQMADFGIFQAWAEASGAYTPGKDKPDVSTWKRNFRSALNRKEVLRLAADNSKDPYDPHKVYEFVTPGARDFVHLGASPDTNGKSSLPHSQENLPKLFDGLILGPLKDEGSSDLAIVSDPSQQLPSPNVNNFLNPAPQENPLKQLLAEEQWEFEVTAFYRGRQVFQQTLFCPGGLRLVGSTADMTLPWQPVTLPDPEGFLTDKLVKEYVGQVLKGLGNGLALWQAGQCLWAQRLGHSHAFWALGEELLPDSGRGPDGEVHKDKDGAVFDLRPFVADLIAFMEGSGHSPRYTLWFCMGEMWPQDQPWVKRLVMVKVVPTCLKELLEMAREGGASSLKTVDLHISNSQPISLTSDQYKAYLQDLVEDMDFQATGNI
Sequence of RIG-I (endogenous, MLFs) (Q6Q899 whole entry): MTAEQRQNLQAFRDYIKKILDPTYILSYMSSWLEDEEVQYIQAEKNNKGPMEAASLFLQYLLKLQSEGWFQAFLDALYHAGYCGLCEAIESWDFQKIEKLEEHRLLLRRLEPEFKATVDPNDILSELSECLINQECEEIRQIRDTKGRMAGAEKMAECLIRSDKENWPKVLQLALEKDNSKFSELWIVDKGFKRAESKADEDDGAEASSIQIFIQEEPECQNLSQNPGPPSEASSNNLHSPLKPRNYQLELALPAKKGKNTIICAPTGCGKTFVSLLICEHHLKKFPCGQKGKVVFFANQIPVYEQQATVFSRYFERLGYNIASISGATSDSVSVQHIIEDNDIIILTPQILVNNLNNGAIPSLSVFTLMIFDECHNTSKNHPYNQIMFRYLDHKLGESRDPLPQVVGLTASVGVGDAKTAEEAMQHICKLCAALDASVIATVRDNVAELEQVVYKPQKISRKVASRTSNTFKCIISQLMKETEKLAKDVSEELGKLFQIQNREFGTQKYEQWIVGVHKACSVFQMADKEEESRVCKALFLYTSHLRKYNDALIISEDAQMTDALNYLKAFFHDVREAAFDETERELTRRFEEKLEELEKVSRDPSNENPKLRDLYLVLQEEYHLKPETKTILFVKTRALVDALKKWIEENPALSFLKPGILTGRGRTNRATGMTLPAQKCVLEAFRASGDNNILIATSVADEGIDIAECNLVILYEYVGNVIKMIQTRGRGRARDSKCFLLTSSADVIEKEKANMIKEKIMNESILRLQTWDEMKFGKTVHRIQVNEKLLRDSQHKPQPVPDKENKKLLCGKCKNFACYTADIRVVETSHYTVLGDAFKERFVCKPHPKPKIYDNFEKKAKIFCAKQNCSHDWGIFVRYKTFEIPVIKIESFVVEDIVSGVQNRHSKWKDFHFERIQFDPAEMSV
Sequence of IRF3-Y/F (Q14653 whole entry Y107F): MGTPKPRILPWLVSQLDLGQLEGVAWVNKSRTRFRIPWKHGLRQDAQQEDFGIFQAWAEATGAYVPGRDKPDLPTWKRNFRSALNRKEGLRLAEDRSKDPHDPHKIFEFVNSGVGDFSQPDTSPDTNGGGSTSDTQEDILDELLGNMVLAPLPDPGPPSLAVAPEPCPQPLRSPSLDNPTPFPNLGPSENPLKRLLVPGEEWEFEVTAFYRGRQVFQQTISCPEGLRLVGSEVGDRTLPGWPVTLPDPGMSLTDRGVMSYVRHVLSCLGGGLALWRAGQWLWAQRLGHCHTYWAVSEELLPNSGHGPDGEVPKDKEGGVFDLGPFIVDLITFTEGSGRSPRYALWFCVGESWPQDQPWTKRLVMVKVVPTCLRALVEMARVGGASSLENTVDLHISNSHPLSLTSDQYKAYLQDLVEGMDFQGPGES
Sequence of MITA/STING (endogenous, MLFs) (Q3TBT3 whole entry): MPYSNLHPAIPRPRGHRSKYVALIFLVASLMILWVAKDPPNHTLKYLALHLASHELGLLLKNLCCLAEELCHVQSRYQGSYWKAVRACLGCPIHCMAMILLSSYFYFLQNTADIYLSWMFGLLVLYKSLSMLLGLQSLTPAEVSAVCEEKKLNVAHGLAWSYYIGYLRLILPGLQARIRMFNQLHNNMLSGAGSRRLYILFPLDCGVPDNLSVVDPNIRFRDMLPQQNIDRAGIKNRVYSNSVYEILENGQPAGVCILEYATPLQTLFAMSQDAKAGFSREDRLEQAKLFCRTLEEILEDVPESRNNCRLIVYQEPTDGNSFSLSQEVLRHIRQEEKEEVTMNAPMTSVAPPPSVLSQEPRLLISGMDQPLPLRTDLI

Row | Substance | virus-induced tyrosine phosphorylation in SRC-deficient MLFs (IP, immunoblot) [1] | virus-induced tyrosine phosphorylation in SRC-deficient MLFs (IP, immunoblot) [2] | virus-induced tyrosine phosphorylation in SRC-deficient MLFs (IP, immunoblot) [3] | virus-induced tyrosine phosphorylation in SRC-deficient MLFs (IP, immunoblot) [4] | virus-induced tyrosine phosphorylation in SRC-deficient MLFs (IP, immunoblot) [5] | SRC-mediated tyrosine phosphorylation (IP, immunoblot) [6] | tyrosine phosphorylation (IP with HA antibody, immunoblot) [7] | tyrosine phosphorylation (IP with HA antibody, immunoblot) [8] | tyrosine phosphorylation (IP with HA antibody, immunoblot) [9] | tyrosine phosphorylation (IP with HA antibody, immunoblot) [10] | tyrosine phosphorylation (IP with HA antibody, immunoblot) [11] | tyrosine phosphorylation (IP with HA antibody, immunoblot) [12] | SRC-mediated tyrosine phosphorylation (IP, immunoblot) [13] | SRC-mediated tyrosine phosphorylation (IP, immunoblot) [14]
1 | SRC (endogenous, MLFs) | SRC-deficiency impaired SeV- or HSV-1-induced tyrosine phosphorylation of endogenous RIG-I, VISA/MAVS, TBK1, IRF3 and MITA/STING | SRC-deficiency impaired SeV- or HSV-1-induced tyrosine phosphorylation of endogenous RIG-I, VISA/MAVS, TBK1, IRF3 and MITA/STING | SRC-deficiency impaired SeV- or HSV-1-induced tyrosine phosphorylation of endogenous RIG-I, VISA/MAVS, TBK1, IRF3 and MITA/STING | SRC-deficiency impaired SeV- or HSV-1-induced tyrosine phosphorylation of endogenous RIG-I, VISA/MAVS, TBK1, IRF3 and MITA/STING | SRC-deficiency impaired SeV- or HSV-1-induced tyrosine phosphorylation of endogenous RIG-I, VISA/MAVS, TBK1, IRF3 and MITA/STING |  |  |  |  |  |  |  |  | 
2 | Flag-tagged SRC (overexpressed in HEK293 cells) |  |  |  |  |  | Mutation of Y107 of IRF3 to F (IRF3-Y/F) impaired SRC-mediated tyrosine phosphorylation of IRF3 | overexpression of SRC caused tyrosine phosphorylation of RIG-I, VISA, MITA, TBK1 and IRF3, but not cGAS | overexpression of SRC caused tyrosine phosphorylation of RIG-I, VISA, MITA, TBK1 and IRF3, but not cGAS | overexpression of SRC caused tyrosine phosphorylation of RIG-I, VISA, MITA, TBK1 and IRF3, but not cGAS | overexpression of SRC caused tyrosine phosphorylation of RIG-I, VISA, MITA, TBK1 and IRF3, but not cGAS | overexpression of SRC caused tyrosine phosphorylation of RIG-I, VISA, MITA, TBK1 and IRF3, but not cGAS | overexpression of SRC caused tyrosine phosphorylation of RIG-I, VISA, MITA, TBK1 and IRF3, but not cGAS | Simultaneous mutation of Y9, Y92, Y95, Y130, Y140 and Y460 of VISA to F (VISA-6YF) impaired SRC-mediated tyrosine phosphorylation | Mutation of Y245 of MITA to F (MITA-Y/F) abolished SRC-mediated tyrosine phosphorylation of MITA

From patent US20210346401
